These substances were tested against HLA-B*07:02 expressed in C1R cells (C1R.B*07:02) (human | human (endogenous in C1R)).

Question: With influenza B virus HA_(255-263) peptide as the substance, how does the IFN-γ+TNF+ CD8+ T cells (expanded with pool H) after restimulation with peptide-pulsed C1R.B*07:02; donors responding read?
Answer: 2 of 10 donors

Question: Which IFN-γ+TNF+ CD8+ T cells (expanded with pool H) after restimulation with peptide-pulsed C1R.B*07:02; donors responding does the source give for influenza B virus NP_(30-38) peptide here?
Answer: 7 of 10 donors

Question: With influenza B virus NP_(233-244) peptide as the substance, how does the IFN-γ+TNF+ CD8+ T cells (expanded with pool H) after restimulation with peptide-pulsed C1R.B*07:02; donors responding read?
Answer: 9 of 10 donors

Question: influenza B virus NS1_(196-206) peptide was tested. Which IFN-γ+TNF+ CD8+ T cells (expanded with pool H) after restimulation with peptide-pulsed C1R.B*07:02; donors responding did it give?
Answer: 6 of 10 donors

The substances below were run against HLA-B*35:01 expressed in C1R cells (C1R.B*35:01) (human | human (endogenous in C1R)).

Question: With influenza B virus HA_(231-239) peptide as the substance, how does the IFN-γ+TNF+ CD8+ T cells (expanded with pool J) after restimulation with peptide-pulsed C1R.B*35:01; donors responding read?
Answer: 3 of 6 donors

Question: For influenza B virus NS1_(260-268) peptide, which IFN-γ+TNF+ CD8+ T cells (expanded with pool J) after restimulation with peptide-pulsed C1R.B*35:01; donors responding is on record?
Answer: 5 of 6 donors

The substances below were run against HLA-B*08:01 expressed in C1R cells (C1R.B*08:01) (human | human (endogenous in C1R)).

Question: Which IFN-γ+TNF+ CD8+ T cells (expanded with pool I) after restimulation with peptide-pulsed C1R.B*08:01; donors responding does the source give for influenza B virus NP_(30-38) peptide here?
Answer: 5 of 9 donors

Question: Which IFN-γ+TNF+ CD8+ T cells (expanded with pool I) after restimulation with peptide-pulsed C1R.B*08:01; donors responding does the source give for influenza B virus NP_(92-99) peptide here?
Answer: 6 of 9 donors

Question: For influenza B virus NP_(479-487) peptide, which IFN-γ+TNF+ CD8+ T cells (expanded with pool I) after restimulation with peptide-pulsed C1R.B*08:01; donors responding is on record?
Answer: 4 of 9 donors

Source: PMC11059233
